Values quoted from earlier work as cited in article PMC4900764.

Target: PEX5 (Saccharomyces cerevisiae) (UniProt P35056)
Test: ITC

Sequence of UniProt P35056 (P35056 whole entry): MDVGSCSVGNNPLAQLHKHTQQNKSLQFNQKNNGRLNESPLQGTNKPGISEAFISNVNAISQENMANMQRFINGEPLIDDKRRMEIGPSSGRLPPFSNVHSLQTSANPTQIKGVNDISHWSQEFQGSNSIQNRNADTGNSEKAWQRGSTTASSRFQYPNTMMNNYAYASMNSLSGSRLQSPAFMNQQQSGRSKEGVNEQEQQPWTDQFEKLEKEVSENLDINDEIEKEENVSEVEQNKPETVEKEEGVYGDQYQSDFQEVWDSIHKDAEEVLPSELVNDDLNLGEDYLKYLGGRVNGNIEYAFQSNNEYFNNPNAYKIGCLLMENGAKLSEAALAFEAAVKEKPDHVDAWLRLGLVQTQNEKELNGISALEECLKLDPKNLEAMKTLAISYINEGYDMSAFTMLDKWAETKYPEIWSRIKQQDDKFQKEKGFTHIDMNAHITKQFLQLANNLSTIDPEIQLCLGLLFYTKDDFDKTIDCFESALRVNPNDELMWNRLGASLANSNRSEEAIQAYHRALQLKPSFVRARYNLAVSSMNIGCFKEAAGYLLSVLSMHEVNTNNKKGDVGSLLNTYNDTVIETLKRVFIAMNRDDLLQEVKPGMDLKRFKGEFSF

Kd: 190 nM
Substance: PCS60 (from UniProt P38137)
